Here are results for 2 molecules from publication doi:10.1101/2025.08.31.673340, “Structural and dynamic basis of indirect apoptosis inhibition by Bcl-xL: a case study with Bid” (bioRxiv, 2025).

In test [1] the target is T1, human Bcl-xL, full length, wild type (human, UniProt Q07817-1 1-233).
T1 construct: human Bcl-xL, full length with the C-terminal hydrophobic helix α9; also called Bcl-xL wt; unlabeled wild type Bcl-xL; source: E. coli, purified from the soluble fraction (chitin resin, anion exchange, Superdex 200)
T1 sequence (Q07817 whole entry): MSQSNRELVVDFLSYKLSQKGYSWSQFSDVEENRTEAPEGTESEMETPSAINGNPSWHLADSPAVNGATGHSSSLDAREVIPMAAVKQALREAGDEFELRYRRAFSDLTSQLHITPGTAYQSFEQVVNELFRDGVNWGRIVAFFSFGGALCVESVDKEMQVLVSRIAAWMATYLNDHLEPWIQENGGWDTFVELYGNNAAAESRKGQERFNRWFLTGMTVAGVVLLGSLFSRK
The test is described as follows: HDX-MS; conditions Bcl-xL; Bcl-xL + LUVs; Bcl-xL + LUVs + cBid; cBid; proteins (340 pmol) pre-incubated with LUVs 1 h at 37 °C, centrifuged at 20'000 x g, the pellet used for deuterium labelling. The conditions noted are these: both partners purified.

Test [2] has as its target T1, human Bcl-xL, full length, wild type. The test is described as follows: co-sedimentation; spin-labeled protein incubated with LUVs alone or with the unlabeled partner; supernatant and pellet fractions quantified by room temperature continuous wave EPR (spin counting). The conditions noted are these: both partners purified.

B1: cBid (mouse Bid cleaved by Caspase 8), wild type (complex)
chain 1: MDSEVSNGSGLGAEHITDLLVFGFLQSSGCTRQELEVLGRELPVQAYWEADLEDELQTD
chain 2: GSQASRSFNQGRIEPDSESQEEIIHNIARHLAQIGDEMDHNIQPTLVRQLAAQFMNGSLSEEDKRNCLAKALDEVKTAFPRDMENDKAMLIMTMLLAKKVASHAPSLLRDVFHTTVNFINQNLFSYVRNLVRNEMD
notes: also called cBid wt; cBidWT; source: E. coli, purified from the soluble fraction (Ni-NTA), cleaved with Caspase 8, purified again with Ni-NTA; not shown: His tag (on Bid before cleavage)
With B1, the binding result in test [1] is on record as “binds”.

B2: cBid spin-labeled at the natural cysteine 126 (complex, mouse)
chain 1: MDSEVSNGSGLGAEHITDLLVFGFLQSSGSTRQELEVLGRELPVQAYWEADLEDELQTD
chain 2: GSQASRSFNQGRIEPDSESQEEIIHNIARHLAQIGDEMDHNIQPTLVRQLAAQFMNGSLSEEDKRNCLAKALDEVKTAFPRDMENDKAMLIMTMLLAKKVASHAPSLLRDVFHTTVNFINQNLFSYVRNLVRNEMD
modifications: MTSL spin label on cysteine 126
notes: p7 fragment of mouse Bid; natural cysteine C30 replaced by serine (singly labeled variant); tBid fragment of mouse Bid with its natural cysteine C126; source: E. coli, purified (Ni-NTA), cleaved with Caspase 8, purified again with Ni-NTA, spin-labeled with MTSL; not shown: His tag (on Bid before cleavage)
Take B2: the binding result in test [2] is “binds”.
